Test results: US11370837 (dated 2022)

T1: human TIGIT-Fc (human, UniProt Q495A1)
T1 chain: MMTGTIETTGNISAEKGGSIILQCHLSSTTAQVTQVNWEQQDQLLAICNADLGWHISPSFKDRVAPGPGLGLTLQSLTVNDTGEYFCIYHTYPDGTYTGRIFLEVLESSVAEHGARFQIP


Molecular target: T1, human TIGIT-Fc
Experiment: BLI

| Binder | Kd [nM] |
| --- | --- |
| ADI-30288 Fab (antibody, V domains shown) VH: EVQLLESGGGLVQPGGSLRLSCAASGFTFGPYGMSWVRQAPGKGLEWVSAISGSGASTWHADSVKGRFTISRDNSKNTLYLQMNSLRAEDTAVYYCAKDPGTDSTGYYYIWRYWGQGTLVTVSS VL: EIVMTQSPATLSVSPGERATLSCRASQSVSSNLAWYQQKPGQAPRLLIYSASTRATGIPARFSGSGSGTEFTLTISSLQSEDFAVYYCQQYVPHPPFTFGGGTKVEIK | 0.547 |
| ADI-30283 Fab (antibody, V domains shown) VH: EVQLLESGGGLVQPGGSLRLSCAASGFTFSPYGMSWVRQAPGKGLEWVSSISGSGGRTYYADSVKGRFTISRDNSKNTLYLQMNSLRAEDTAVYYCAKDPGTDSSGYYYIWRYWGQGTLVTVSS VL: EIVMTQSPATLSVSPGERATLSCRASQSVSSNLAWYQQKPGQAPRLLIYSASTRATGIPARFSGSGSGTEFTLTISSLQSEDFAVYYCQQYVPHPPFTFGGGTKVEIK | 0.553 |
| ADI-30296 Fab (antibody, V domains shown) VH: EVQLVESGGGLVQPGGSLRLSCAASGFTIGGYSMNWVRQAPGKGLEWVSYISSSSTIHYADSVKGRFTISRDNAKNSLYLQMNSLRAEDTAVYYCARHRIGRSPSRAFDIWGQGTMVTVSS VL: not shown | 2.43 |
| ADI-27238 Fab (antibody, V domains shown) VH: QVQLVQSGAEVKKPGASVKVSCKASGYTFTSYYMSWVRQAPGQGLEWMGIINPSGGSTSYAQKFQGRVTMTRDTSTSTVYMELSSLRSEDTAVYYCARARYPSSWPYGMDVWGQGTTVTVSS VL: DIQMTQSPSSLSASVGDRVTITCRASQSINSYLNWYQQKPGKAPKLLIYAASSLQSGVPSRFSGSGSGTDFTLTISSLQPEDFATYYCQQSLLTPFTFGGGTKVEIK | 13.8 |
| ADI-30267 Fab (antibody, V domains shown) VH: QVQLVQSGAEVKKPGASVKVSCKASGYTFRSYYMSWVRQAPGQGLEWMGIIDPSGGRTSFAQKFQGRVTMTRDTSTSTVYMELSSLRSEDTAVYYCARARYPESWPYGMDVWGQGTTVTVSS VL: DIQMTQSPSSLSASVGDRVTITCRASQSINSYLNWYQQKPGKAPKLLIYAASSLQSGVPSRFSGSGSGTDFTLTISSLQPEDFATYYCQQSLLTPFTFGGGTKVEIK | 1.66 |
| ADI-30263 Fab (antibody, V domains shown) VH: QVQLVQSGAEVKKPGASVKVSCKASGYTFLSYYMNWVRQAPGQGLEWMGIIDPSGGRTSYAQKFQGRVTMTRDTSTSTVYMELSSLRSEDTAVYYCARARYPSSWPYGTDVWGQGTTVTVSS VL: DIQMTQSPSSLSASVGDRVTITCRASQSINSYLNWYQQKPGKAPKLLIYAASSLQSGVPSRFSGSGSGTDFTLTISSLQPEDFATYYCQQSLLTPFTFGGGTKVEIK | 0.795 |
| ADI-27297 Fab (antibody, V domains shown) VH: QVQLVQSGAEVKKPGASVKVSCKASGYTFTSYYMHWVRQAPGQGLEWMGIINPSGGSTSYAQKFQGRVTMTRDTSTSTVYMELSSLRSEDTAVYYCARDHDIAAAGRLADYWGQGTLVTVSS VL: DIQMTQSPSSVSASVGDRVTITCRASQGISSWLAWYQQKPGKAPKLLISAASSLQSGVPSRFSGSGSGTDFTLTISSLQPEDFATYYCQQAVILPITFGGGTKVEIK | 32.1 |
| ADI-30311 Fab (antibody, V domains shown) VH: QLQLQESGPGLVKPSETLSLTCTVSGGSIASSVYYWGWIRQPPGKGLEWIGSIYYSGSTWYNPSLKSRVTISVDTSKNQFSLKLSSVTAADTAVYYCAREAGRTGTGLLFDYWGQGTLVTVSS VL: DIQMTQSPSTLSASVGDRVTITCRASQSISSWLAWYQQKPGKAPKLLIYKASSLESGVPSRFSGSGSGTEFTLTISSLQPDDFATYYCQQYGILPRTFGGGTKVEIK | 0.807 |
| ADI-30302 Fab (antibody, V domains shown) VH: QLQLQESGPGLVKPSETLSLTCTVSGGSIGSSQYYWGWIRQPPGKGLEWIGSIYRSGGTYYNPSLKSRVTISVDTSKNQFSLKLSSVTAADTAVYYCARDGLYHTPEYFQHWGQGTLVTVSS VL: EIVLTQSPATLSLSPGERATLSCRASQSVSSYLAWYQQKPGQAPRLLIYDASNRATGIPARFSGSGSGTDFTLTISSLEPEDFAVYYCQQRFAFPYTFGGGTKVEIK | 0.329 |
